Assay results reported in patent US20230143604A1, “QW DOSING OF GIP RECEPTOR AGONIST PEPTIDE COMPOUNDS AND USES THEREOF” (TAKEDA PHARMACEUTICAL COMPANY LIMITED, priority 2020, published 2023).
Starred links: 1 amine or outer side, 2 acyl side, 3 side chain; linkers in the order of their positions; H or OH if unused. Non-standard residues stand in square brackets, D forms with d. Groups on a side chain read outwards from the residue. No end group written: not given here. *: point of attachment. 2OEGgEgE‑C18 diacid = O=C(O)CCCCCCCCCCCCCCCCC(=O)N[C@@H](CCC(=O)N[C@@H](CCC(=O)NCCOCCOCC(=O)NCCOCCOCC(=O)*)C(=O)O)C(=O)O; C18 diacid = O=C(O)CCCCCCCCCCCCCCCCC(=O)*; C17 diacid = O=C(O)CCCCCCCCCCCCCCCC(=O)*; γGlu = O=C(O)[C@H](CCC(=O)[*:2])N[*:1]; NMeY = CN[C@@H](Cc1ccc(O)cc1)C(=O)O; AEEA = NCCOCCOCC(=O)O; Aib = CC(C)(N)C(=O)O

T1: full-length human GIPR with an N-terminal FLAG tag (human, UniProt P48546 22-466)
T1 sequence (looked up): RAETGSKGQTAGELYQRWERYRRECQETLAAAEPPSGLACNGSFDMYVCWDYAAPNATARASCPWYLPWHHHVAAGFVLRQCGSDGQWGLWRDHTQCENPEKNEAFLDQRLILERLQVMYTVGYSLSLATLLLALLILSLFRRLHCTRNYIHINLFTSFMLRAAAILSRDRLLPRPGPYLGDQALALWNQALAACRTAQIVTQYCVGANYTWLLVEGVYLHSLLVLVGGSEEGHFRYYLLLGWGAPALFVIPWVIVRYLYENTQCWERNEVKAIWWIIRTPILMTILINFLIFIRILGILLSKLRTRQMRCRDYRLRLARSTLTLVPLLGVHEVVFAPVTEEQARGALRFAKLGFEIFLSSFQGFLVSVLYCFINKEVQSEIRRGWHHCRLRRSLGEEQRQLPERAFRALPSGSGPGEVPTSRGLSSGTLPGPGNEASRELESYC

B1: Compound No. 155 (peptide)
peptide: Y[Aib]EGTFISDYSIALDK[Aib]AQAK([AEEA-AEEA-γGlu-γGlu-C18 diacid])FVEWLLAQRG-OH
modifications: N-terminus assumed
SMILES: CC[C@H](C)[C@H](NC(=O)[C@H](CO)NC(=O)[C@H](Cc1ccc(O)cc1)NC(=O)[C@H](CC(=O)O)NC(=O)[C@H](CO)NC(=O)[C@@H](NC(=O)[C@H](Cc1ccccc1)NC(=O)[C@@H](NC(=O)CNC(=O)[C@H](CCC(=O)O)NC(=O)C(C)(C)NC(=O)[C@@H](N)Cc1ccc(O)cc1)[C@@H](C)O)[C@@H](C)CC)C(=O)N[C@@H](C)C(=O)N[C@@H](CC(C)C)C(=O)N[C@@H](CC(=O)O)C(=O)N[C@@H](CCCCN)C(=O)NC(C)(C)C(=O)N[C@@H](C)C(=O)N[C@@H](CCC(N)=O)C(=O)N[C@@H](C)C(=O)N[C@@H](CCCCNC(=O)COCCOCCNC(=O)COCCOCCNC(=O)CC[C@H](NC(=O)CC[C@H](NC(=O)CCCCCCCCCCCCCCCCC(=O)O)C(=O)O)C(=O)O)C(=O)N[C@@H](Cc1ccccc1)C(=O)N[C@H](C(=O)N[C@@H](CCC(=O)O)C(=O)N[C@@H](Cc1c[nH]c2ccccc12)C(=O)N[C@@H](CC(C)C)C(=O)N[C@@H](CC(C)C)C(=O)N[C@@H](C)C(=O)N[C@@H](CCC(N)=O)C(=O)N[C@@H](CCCNC(=N)N)C(=O)NCC(=O)O)C(C)C

target: T1, full-length human GIPR with an …; experiment: cell-based or functional assay

Point of comparison: [NMeY][Aib]EGTFISDYSIALDR[Aib]AQ[Aib]K([AEEA-AEEA-γGlu-γGlu-C17 diacid])FVNWLLAQRGGGGS-NH2 [Compound No. 30], “Human GIPR cAMP EC50, HEK293T” value 0.0006 nM. Against it:
- [NMeY][Aib]EGTFISDYSI[Aib]K([AEEA-AEEA-γGlu-γGlu-C17 diacid])DR[Aib]AQ[Aib]NFVNWLLAQRGGGGS-NH2 [Compound No. 32] — 2-fold lower, 0.0003 nM
- [NMeY][Aib]EGTFISDYSI[Aib]LDRK([AEEA-AEEA-γGlu-γGlu-C18 diacid])AQ[Aib]NFVNWLLAQRPSSGAPPPS-NH2 [Compound No. 26] — 2-fold lower, 0.0003 nM
- [NMeY][Aib]EGTFISDYSI[Aib]LDR[Aib]AQ[Aib]NFVNWLLAQK([AEEA-AEEA-γGlu-γGlu-C17 diacid])GGGGS-NH2 [Compound No. 33] — within 1.5-fold, 0.0008 nM
- [NMeY][Aib]EGTFISDYSIAK([G5-γGlu-C17 diacid])DR[Aib]AQ[Aib]DFVNWLLAQRPSSGAPPPS-NH2 [Compound No. 22] — within 1.5-fold, 0.0005 nM
- [NMeY][Aib]EGTFISDYSIALDR[Aib]K([AEEA-AEEA-γGlu-γGlu-C17 diacid])Q[Aib]NFVNWLLAQSGGGGS-NH2 [Compound No. 31] — 2-fold lower, 0.0003 nM
- [NMeY][Aib]EGTFISDYSIALDR[Aib]K([AEEA-AEEA-γGlu-C17 diacid])Q[Aib]DFVNWLLAQRPSSGAPPPS-NH2 [Compound No. 25] — 3.2-fold higher, 0.0019 nM
- [NMeY][Aib]EGTFISDYSIAK([G5-γGlu-C18 diacid])DR[Aib]AQ[Aib]DFVNWLLAQRPSSGAPPPS-NH2 [Compound No. 24] — within 1.5-fold, 0.0004 nM
- [NMeY][Aib]EGTFISDYSI[Aib]K([AEEA-AEEA-γGlu-γGlu-C18 diacid])DR[Aib]AQ[Aib]NFVNWLLAQRPSSGAPPPS-NH2 [Compound No. 28] — 2-fold lower, 0.0003 nM
- [NMeY][Aib]EGTFISDYSI[Aib]K([AEEA-AEEA-γGlu-γGlu-C17 diacid])DR[Aib]AQ[Aib]NFVNWLLAQSPSSGAPPPS-NH2 [Compound No. 29] — within 1.5-fold, 0.0004 nM
- [NMeY][Aib]EGTFISDYSIALDR[Aib]AQ[Aib]K(2OEGgEgE‑C18 diacid)FVNWLLAQSG-OH [Compound No. 42] — within 1.5-fold, 0.0008 nM
- [NMeY][Aib]EGTFISDYSIAK([G5-γGlu-γGlu-C18 diacid])DR[Aib]AQ[Aib]NFVNWLLAQRPSSGAPPPS-NH2 [Compound No. 34] — within 1.5-fold, 0.0004 nM
- [NMeY][Aib]EGTFISDYSIALDRK([AEEA-AEEA-γGlu-C18 diacid])AQ[Aib]DFVNWLLAQRPSSGAPPPS-NH2 [Compound No. 23] — 2-fold lower, 0.0003 nM
- [NMeY][Aib]EGTFISDYSIALDR[Aib]AQ[Aib]K([AEEA-AEEA-γGlu-γGlu-C18 diacid])FVNWLLAQRGGGGS-NH2 [Compound No. 21] — within 1.5-fold, 0.0004 nM
- [NMeY][Aib]EGTFISDYSIALDRIHQ[Aib]NFVNWLLAQK([AEEA-AEEA-γGlu-C18 diacid])PSSGAPPPS-NH2 [Compound No. 2] — 2-fold lower, 0.0003 nM
- B1 — within 1.5-fold, 0.0008 nM
- [NMeY][Aib]EGTFISDYSIALDR[Aib]AQ[Aib]K([AEEA-AEEA-γGlu-γGlu-C18 diacid])FVNWLLAQRPSSGAPPPS-NH2 [Compound No. 35] — within 1.5-fold, 0.0007 nM
- [NMeY][Aib]EGTFISDYSIAK([AEEA-AEEA-γGlu-C18 diacid])DRIHQQNFVNWLLAQRPSSGAPPPS-NH2 [Compound No. 3] — the same, 0.0006 nM
- YXEGTFISDYSIAXDRXAQXDFVNWLLAQSPSSGAPPPS (N-methyl Tyr 1; Aib at 2,17,20; Lys(G5-C18 diacid) at 14; C-terminal NH2) [Compound No. 38] — the same, 0.0006 nM
- YXEGTFISDYSIAXDRXAQXNFVNWLLAQSPSSGAPPPS (N-methyl Tyr 1; Aib at 2,17,20; Lys(G5-C18 diacid) at 14; C-terminal OH) [Compound No. 45] — the same, 0.0006 nM
- YXEGTFISDYSIAXDRXAQXDFVNWLLAQRPSSGAPPPS (N-methyl Tyr 1; Aib at 2,17,20; Lys(G5-C18 diacid) at 14; C-terminal OH) [Compound No. 43] — 1.7-fold higher, 0.001 nM
- YXEGTFISDYSIAXDRXAQXNFVNWLLAQRPSSGAPPPS (N-methyl Tyr 1; Aib at 2,17,20; Lys(G5-C18 diacid) at 14; C-terminal OH) [Compound No. 44] — 2.8-fold higher, 0.0017 nM

target: full-length human GLP-1R with an N-terminal FLAG tag (human, UniProt P43220 24-463); experiment: cell-based or functional assay

Point of comparison: YXEGTFISDYSIAXDRXAQXNFVNWLLAQRPSSGAPPPS (N-methyl Tyr 1; Aib at 2,17,20; Lys(G5-C18 diacid) at 14; C-terminal OH) [Compound No. 44], “Human GLP1R cAMP EC50, HEK293T” value 10.7 nM. Against it:
- [NMeY][Aib]EGTFISDYSI[Aib]K([AEEA-AEEA-γGlu-γGlu-C17 diacid])DR[Aib]AQ[Aib]NFVNWLLAQRGGGGS-NH2 [Compound No. 32] — 93-fold higher, 1000 nM
- [NMeY][Aib]EGTFISDYSI[Aib]LDRK([AEEA-AEEA-γGlu-γGlu-C18 diacid])AQ[Aib]NFVNWLLAQRPSSGAPPPS-NH2 [Compound No. 26] — 3.6-fold higher, 38.9 nM
- [NMeY][Aib]EGTFISDYSI[Aib]LDR[Aib]AQ[Aib]NFVNWLLAQK([AEEA-AEEA-γGlu-γGlu-C17 diacid])GGGGS-NH2 [Compound No. 33] — 41-fold higher, 437 nM
- [NMeY][Aib]EGTFISDYSIAK([G5-γGlu-C17 diacid])DR[Aib]AQ[Aib]DFVNWLLAQRPSSGAPPPS-NH2 [Compound No. 22] — 49-fold higher, 525 nM
- [NMeY][Aib]EGTFISDYSIALDR[Aib]K([AEEA-AEEA-γGlu-γGlu-C17 diacid])Q[Aib]NFVNWLLAQSGGGGS-NH2 [Compound No. 31] — 16-fold higher, 170 nM
- [NMeY][Aib]EGTFISDYSIALDR[Aib]K([AEEA-AEEA-γGlu-C17 diacid])Q[Aib]DFVNWLLAQRPSSGAPPPS-NH2 [Compound No. 25] — 14-fold higher, 145 nM
- [NMeY][Aib]EGTFISDYSIAK([G5-γGlu-C18 diacid])DR[Aib]AQ[Aib]DFVNWLLAQRPSSGAPPPS-NH2 [Compound No. 24] — 18-fold higher, 191 nM
- [NMeY][Aib]EGTFISDYSI[Aib]K([AEEA-AEEA-γGlu-γGlu-C18 diacid])DR[Aib]AQ[Aib]NFVNWLLAQRPSSGAPPPS-NH2 [Compound No. 28] — 2-fold higher, 20.9 nM
- [NMeY][Aib]EGTFISDYSI[Aib]K([AEEA-AEEA-γGlu-γGlu-C17 diacid])DR[Aib]AQ[Aib]NFVNWLLAQSPSSGAPPPS-NH2 [Compound No. 29] — 39-fold higher, 417 nM
- [NMeY][Aib]EGTFISDYSIALDR[Aib]AQ[Aib]K(2OEGgEgE‑C18 diacid)FVNWLLAQSG-OH [Compound No. 42] — 1.9-fold lower, 5.5 nM
- [NMeY][Aib]EGTFISDYSIAK([G5-γGlu-γGlu-C18 diacid])DR[Aib]AQ[Aib]NFVNWLLAQRPSSGAPPPS-NH2 [Compound No. 34] — 93-fold higher, 1000 nM
- [NMeY][Aib]EGTFISDYSIALDRK([AEEA-AEEA-γGlu-C18 diacid])AQ[Aib]DFVNWLLAQRPSSGAPPPS-NH2 [Compound No. 23] — 4.7-fold higher, 50.1 nM
- [NMeY][Aib]EGTFISDYSIALDR[Aib]AQ[Aib]K([AEEA-AEEA-γGlu-γGlu-C18 diacid])FVNWLLAQRGGGGS-NH2 [Compound No. 21] — 3.2-fold higher, 34.7 nM
- [NMeY][Aib]EGTFISDYSIALDR[Aib]AQ[Aib]K([AEEA-AEEA-γGlu-γGlu-C17 diacid])FVNWLLAQRGGGGS-NH2 [Compound No. 30] — 9.8-fold higher, 105 nM
- [NMeY][Aib]EGTFISDYSIALDRIHQ[Aib]NFVNWLLAQK([AEEA-AEEA-γGlu-C18 diacid])PSSGAPPPS-NH2 [Compound No. 2] — 49-fold higher, 525 nM
- B1 — 8-fold higher, 85.1 nM
- [NMeY][Aib]EGTFISDYSIALDR[Aib]AQ[Aib]K([AEEA-AEEA-γGlu-γGlu-C18 diacid])FVNWLLAQRPSSGAPPPS-NH2 [Compound No. 35] — 8.3-fold higher, 89.1 nM
- [NMeY][Aib]EGTFISDYSIAK([AEEA-AEEA-γGlu-C18 diacid])DRIHQQNFVNWLLAQRPSSGAPPPS-NH2 [Compound No. 3] — within 1.5-fold, 10.5 nM
- YXEGTFISDYSIAXDRXAQXDFVNWLLAQSPSSGAPPPS (N-methyl Tyr 1; Aib at 2,17,20; Lys(G5-C18 diacid) at 14; C-terminal NH2) [Compound No. 38] — 4.3-fold higher, 45.7 nM
- YXEGTFISDYSIAXDRXAQXNFVNWLLAQSPSSGAPPPS (N-methyl Tyr 1; Aib at 2,17,20; Lys(G5-C18 diacid) at 14; C-terminal OH) [Compound No. 45] — within 1.5-fold, 8.22 nM
- YXEGTFISDYSIAXDRXAQXDFVNWLLAQRPSSGAPPPS (N-methyl Tyr 1; Aib at 2,17,20; Lys(G5-C18 diacid) at 14; C-terminal OH) [Compound No. 43] — 5.8-fold higher, 61.7 nM
